Experimental data taken from patent publication US11298427B2, “Prodrugs comprising a pyroglutamate linker” (Ascendis Pharma A/S, priority 2015, dated 2022).
Like-named read-outs stand apart in the source and are kept apart here.

Assay: hydrolysis / release kinetics of linker-peptide conjugates in buffer at 37° C., LCMS analysis, half-life by curve fitting
Assay type: physicochemical
Protocol: The hydrolysis kinetics of PEGylated linker-peptide conjugate 8 were studied at pH 7.4, 37° C. and pH 8.9, 37° C. Therefore, the starting material 8 was dissolved in two different buffers (60 mM phosphate, pH 7.4 and 100 mM borate pH 8.9, respectively). The resulting solutions were incubated in a water bath at 37° C. At given points in time samples were withdrawn, quenched and analyzed by LCMS. Curve fitting software was applied to determine the corresponding half-life of the release.
Release kinetics were setup and analyzed according to example 5 with additional buffers at 37° C.
Release kinetics were setup and analyzed according to example 5 with changed buffers.

[1] = sodium phosphate buffer, pH 7.4, 100 mM sodium phosphate, pH 7.4, 37° C., read-out: half-life (converted)

Compound: COCCOCCOCCOCCOCCOCCOCCOCCNC(=O)[C@@H](N)CCC(=O)NCCCC[C@H](NC(=O)[C@H](CO)NC(C)=O)C(=O)N[C@@H](Cc1ccc(O)cc1)C(=O)O [Compound 8]
- half-life (borate buffer, pH 8.9, 100 mM borate, pH 8.9, 37° C., read-out: half-life of release of Ac-Ser-Lys-Tyr-OH (9) (converted)): 220 days
- half-life (phosphate buffer, pH 7.4, 60 mM phosphate, pH 7.4, 37° C., read-out: half-life of release of Ac-Ser-Lys-Tyr-OH (9) (converted)): 56 days

Compound: COCCOCCOCCOCCOCCOCCOCCOCCN(C)C(=O)[C@@H](N)CCC(=O)NCCCC[C@H](NC(=O)[C@H](CO)NC(C)=O)C(=O)N[C@@H](Cc1ccc(O)cc1)C(=O)O [Compound 25a]
- half-life [1]: 26 days

Compound: CN[C@@H](CCC(=O)NCCCC[C@H](NC(=O)[C@H](CO)NC(C)=O)C(=O)N[C@@H](Cc1ccc(O)cc1)C(=O)O)C(=O)N(C)CCOCCOCCOCCOCCOCCOCCOCCOC [Compound 25c]
- half-life (HEPES buffer, pH 7.4, 60 mM HEPES, 130 mM NaCl, pH 7.4, 37° C., read-out: half-life (converted)): 149 days
- half-life (sodium borate buffer, pH 9, 100 mM sodium borate, pH 9.0, 37° C., read-out: half-life (converted)): 92 days
- half-life (sodium citrate buffer, pH 4, 100 mM sodium citrate, pH 4.0, 37° C., read-out: half-life (converted)): 129 days
- half-life (sodium citrate buffer, pH 5.5, 100 mM sodium citrate, pH 5.5, 37° C., read-out: half-life (converted)): 207 days
- half-life (sodium citrate buffer, pH 6.5, 30 mM sodium citrate, pH 6.5, 37° C., read-out: half-life (converted)): 339 days
- half-life (sodium citrate buffer, pH 6.5, 100 mM sodium citrate, pH 6.5, 37° C., read-out: half-life (converted)): 336 days
- half-life (sodium phosphate buffer, pH 6.5, 100 mM sodium phosphate, pH 6.5, 37° C., read-out: half-life (converted)): 35 days
- half-life (sodium phosphate buffer, pH 7.4, 30 mM sodium phosphate, pH 7.4, 37° C., read-out: half-life (converted)): 55 days
- half-life (sodium phosphate buffer, pH 7.4, 60 mM sodium phosphate, pH 7.4, 37° C., read-out: half-life (converted)): 36 days
- half-life [1]: 55 days
- half-life (sodium phosphate buffer, pH 7.4, 200 mM sodium phosphate, pH 7.4, 37° C., read-out: half-life (converted)): 17 days

Compound: CN[C@@H](CCC(=O)NCCCC[C@H](NC(=O)[C@H](CO)NC(C)=O)C(=O)N[C@@H](Cc1ccc(O)cc1)C(=O)O)C(=O)NCCOCCOCCOCCOCCOCCOCCOCCOC [Compound 25b]
- half-life [1]: 164 days
